The numbers were not newly measured in publication PMC7092810, which cites them from elsewhere.

This series has as its target Cyclophilin A (Homo sapiens) (UniProt P62937).

Chain of Cyclophilin A (Homo sapiens) (P62937 whole entry): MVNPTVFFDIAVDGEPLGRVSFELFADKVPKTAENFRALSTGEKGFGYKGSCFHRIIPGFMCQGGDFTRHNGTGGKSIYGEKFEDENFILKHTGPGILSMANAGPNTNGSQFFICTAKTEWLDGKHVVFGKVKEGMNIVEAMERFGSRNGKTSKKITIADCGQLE
Chain of HIV-1 capsid protein CA (O93182 133-363): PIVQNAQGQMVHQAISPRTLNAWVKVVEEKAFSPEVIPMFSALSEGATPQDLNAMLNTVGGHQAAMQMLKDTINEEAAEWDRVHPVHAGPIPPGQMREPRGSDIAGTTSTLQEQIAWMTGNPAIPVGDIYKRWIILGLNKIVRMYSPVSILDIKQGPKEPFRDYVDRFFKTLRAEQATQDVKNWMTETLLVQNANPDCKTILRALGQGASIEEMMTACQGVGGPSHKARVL

In general, Kd refers to the equilibrium constant for the complex coming apart. As for “HIV-1 capsid protein CA (from UniProt O93182)”, the Kd is 16 µM.
